Measurements reported in PMC5630700 (2017).

B1: sdAb B–Gaussia luciferase fusion (glucibody, pecan35) (VHH)
VHH: KVQLQESGGGLVQAGGSLRLSCAASGGTFSINTLGWYRRAPGKEREFVARISSGGITRYADSVKGRFTISRDNGKNTVYLDMNSLKPEDTAVYYCMYRNWGGGLDVYWGQGTQVTVSS
B2: sdAb A–Gaussia luciferase fusion (glucibody, pecan35) (VHH)
VHH: EVKLQESGGGLVQAGESLRLSCAVPPEVFDIRTVAWYRQVPLGKGRELLSSITPWNKTTYEDSVKDRFTISRDNAKYTVYLQMNDLKPEDTAVYYCAQGWGIASMRYWGQGTQVTVSS
B3: sdAb C–Gaussia luciferase fusion (glucibody, pecan35) (VHH)
VHH: KVQLQESGGGLVQVGGSLRLSCKASGFTFRSSAMGWYRRAPGKQRELVASLTTTGTADYGDFVKGRFTISRDNAENTVDLHMNSLKPEDTAVYYCHEDPYGMESLRYWGQGTQVTVSS

biological target: mbp-NP600 fusion protein (Marburg virus Musoke, UniProt P27588 601-695); assay: ELISA
Sequence (P27588 601-695): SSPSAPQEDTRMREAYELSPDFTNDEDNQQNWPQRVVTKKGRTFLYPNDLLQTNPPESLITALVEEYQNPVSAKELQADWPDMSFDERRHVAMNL

Binder | EC50
B1 | 162 nM
B2 | 14.1 nM
B3 | 11.9 nM

biological target: purified recombinant MARV (Marburg Musoke) nucleoprotein polymer (Marburg virus Musoke, UniProt P27588 1-695); assay: ELISA
Sequence (P27588 whole entry): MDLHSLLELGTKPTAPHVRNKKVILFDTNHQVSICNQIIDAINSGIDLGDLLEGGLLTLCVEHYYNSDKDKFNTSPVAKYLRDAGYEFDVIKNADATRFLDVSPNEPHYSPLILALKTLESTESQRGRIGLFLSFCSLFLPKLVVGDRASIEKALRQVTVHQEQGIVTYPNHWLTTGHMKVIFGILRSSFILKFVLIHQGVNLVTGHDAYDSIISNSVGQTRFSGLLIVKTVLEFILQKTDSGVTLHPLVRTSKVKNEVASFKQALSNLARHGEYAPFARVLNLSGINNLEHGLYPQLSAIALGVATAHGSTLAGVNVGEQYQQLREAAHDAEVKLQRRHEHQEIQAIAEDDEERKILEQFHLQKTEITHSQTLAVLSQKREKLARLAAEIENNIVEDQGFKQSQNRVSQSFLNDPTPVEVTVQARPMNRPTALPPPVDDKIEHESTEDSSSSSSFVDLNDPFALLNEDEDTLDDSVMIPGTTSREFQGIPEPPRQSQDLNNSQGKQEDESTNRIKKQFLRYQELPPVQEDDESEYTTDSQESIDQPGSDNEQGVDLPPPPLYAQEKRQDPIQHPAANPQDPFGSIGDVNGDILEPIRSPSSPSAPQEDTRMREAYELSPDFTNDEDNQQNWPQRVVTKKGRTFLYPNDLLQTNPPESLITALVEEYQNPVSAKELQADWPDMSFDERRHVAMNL

Binder | EC50
B1 | 10.8 nM
B2 | 2.8 nM
B3 | 4.1 nM
